Target: SARS-CoV-2 Spike receptor-binding domain (SARS-CoV-2) (UniProt P0DTC2)
Assay: AUC

Work on “SARS-CoV-2 Spike receptor-binding domain (from UniProt P0DTC2) (domain or fragment)” yielded a stoichiometry N of 2.

From PMC8279307
